Results taken from PMC2132842.

Experiments:
Assay in all cases: two-hybrid
GAL4/CAS (human) = GAL4/CAS (human) (UniProt P55060)
GAL4/Imp βΔ1/261 (human) = GAL4/Imp βΔ1/261 (human) (UniProt Q14974)
GAL4/LEF-1 (297–399) = GAL4/LEF-1 (297–399) (UniProt Q9UJU2)
GAL4/LEF-1 (297–399), sequence (Q9UJU2 297-399): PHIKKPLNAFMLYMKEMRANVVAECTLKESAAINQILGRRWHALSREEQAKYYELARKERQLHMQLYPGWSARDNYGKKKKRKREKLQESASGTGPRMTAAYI

GAL4/CAS (human), sequence (P55060 whole entry, the tested form may be a part): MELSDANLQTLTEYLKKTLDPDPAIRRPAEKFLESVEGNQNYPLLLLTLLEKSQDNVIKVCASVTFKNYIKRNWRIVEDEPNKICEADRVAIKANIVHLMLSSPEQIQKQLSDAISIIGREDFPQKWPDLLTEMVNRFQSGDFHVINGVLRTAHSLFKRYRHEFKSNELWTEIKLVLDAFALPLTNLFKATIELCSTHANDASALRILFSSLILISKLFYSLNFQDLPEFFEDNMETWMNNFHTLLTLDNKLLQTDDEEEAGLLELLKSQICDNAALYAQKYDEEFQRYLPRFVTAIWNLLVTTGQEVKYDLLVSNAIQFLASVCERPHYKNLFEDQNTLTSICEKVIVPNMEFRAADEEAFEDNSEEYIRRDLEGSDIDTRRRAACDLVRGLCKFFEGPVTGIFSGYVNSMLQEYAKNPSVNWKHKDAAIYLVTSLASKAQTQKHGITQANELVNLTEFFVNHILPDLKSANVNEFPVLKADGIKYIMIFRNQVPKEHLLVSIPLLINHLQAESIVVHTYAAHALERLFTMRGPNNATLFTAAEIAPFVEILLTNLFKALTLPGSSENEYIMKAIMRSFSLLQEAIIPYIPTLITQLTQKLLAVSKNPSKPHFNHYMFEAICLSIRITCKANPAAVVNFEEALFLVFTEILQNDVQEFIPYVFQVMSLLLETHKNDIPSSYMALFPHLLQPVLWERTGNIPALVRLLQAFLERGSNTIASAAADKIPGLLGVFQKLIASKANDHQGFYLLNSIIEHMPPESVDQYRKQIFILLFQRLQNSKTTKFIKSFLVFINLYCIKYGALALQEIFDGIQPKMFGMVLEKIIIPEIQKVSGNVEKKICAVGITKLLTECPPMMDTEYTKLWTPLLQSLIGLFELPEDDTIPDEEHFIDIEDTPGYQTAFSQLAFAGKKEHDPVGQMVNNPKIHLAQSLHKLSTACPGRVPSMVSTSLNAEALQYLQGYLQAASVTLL
GAL4/Imp βΔ1/261 (human), sequence (Q14974 262-876, stated change not applied): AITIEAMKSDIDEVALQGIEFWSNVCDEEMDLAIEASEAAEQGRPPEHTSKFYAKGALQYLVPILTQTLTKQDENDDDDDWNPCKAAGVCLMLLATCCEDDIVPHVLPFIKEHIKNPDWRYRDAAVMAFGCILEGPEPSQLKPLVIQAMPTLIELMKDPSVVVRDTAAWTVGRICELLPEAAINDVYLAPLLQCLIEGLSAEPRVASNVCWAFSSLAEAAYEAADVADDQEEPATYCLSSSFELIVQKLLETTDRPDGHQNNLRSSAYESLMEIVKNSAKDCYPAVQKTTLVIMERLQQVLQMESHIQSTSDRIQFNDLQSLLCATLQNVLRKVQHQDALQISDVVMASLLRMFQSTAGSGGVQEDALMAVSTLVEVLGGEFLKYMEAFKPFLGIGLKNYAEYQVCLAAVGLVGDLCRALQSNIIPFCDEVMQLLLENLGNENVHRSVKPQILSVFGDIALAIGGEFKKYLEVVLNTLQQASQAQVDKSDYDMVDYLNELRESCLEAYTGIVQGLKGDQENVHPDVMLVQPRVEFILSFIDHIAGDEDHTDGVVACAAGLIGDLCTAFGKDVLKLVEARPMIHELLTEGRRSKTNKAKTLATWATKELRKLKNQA

β-gal activity (GAL4/CAS (human)): 434 mOD/ml
β-gal activity (GAL4/Imp βΔ1/261 (human)): 1200 mOD/ml
β-gal activity (GAL4/LEF-1 (297–399)): 130 mOD/ml
Substance: VP16/Imp α2 (from UniProt P52292 1-529) (natural protein)
